# Patent US9556249B2, “Neuregulin antagonists and use thereof in treating cancer” (Genentech, Inc., priority 2010, dated 2017)
# Tests used:
# [1] = test system: LSL-K-ras^G12D; p53^Fl/+ lung tumors; assay: LSL-K-ras G12D; p53 Fl/+ lung tumor model, micro-CT tumor burden; assay type: in vivo, mice
# NRG1/HER3 signaling = assay: HER4-ECD added to serum starved LKPH1 and LKPH2 cells, Western blotting; assay type: cell-based, mouse; settings: HER4ECD 2 mg/ml, 48 hours
# [2] = test system: LSL-K-ras^G12D; p53^Fl/Fl lung tumors; assay: LSL-K-ras G12D; p53 Fl/Fl lung tumor model, micro-CT tumor burden; assay type: in vivo, mice
# KPL4 = assay: KPL4-GFP orthotopic breast cancer model, response to chemotherapy; assay type: in vivo, SCID/beiz mice; settings: following completion of chemotherapy regimen; tumors subsequently recurred
# Method: Several cancer models that show significant regression in response to chemotherapy followed by tumor relapse after the cessation of therapy (FIG. 1) were generated and used to study the cells that are responsible for tumor re-initiation. These cells are tumor reinitiating cells (TRICs). In order to generate the models, GFP labeled human tumor cells were transplanted subcutaneously, and when tumor size reached ˜200 mm^3, mice were treated with either vehicle or chemotherapy as shown in the respective models. GFP+ tumor cells were isolated from regressed or vehicle treated tumors by FACS-sorting after enzymatic digestion and dissociation. Tumors were collected a minimum of one week after the last dose of chemotherapy and before the resumption of tumor growth.
# GFP-expressing sublines of the human breast cancer cell line KPL4 were transplanted orthotropically to the mammary fat pad of SCID/beiz mice. For the KPL4 model, chemotherapy consisted of Paclitaxel (20 mg/kg, i.v. every other day for 5 doses). FIG. 2C (data presented as mean tumor volume±SEM, n=12 mice/group).
# [3] = test system: LSL-K-ras^G12D lung tumors; settings: LSL-K-ras^G12D mice (Oliver et al., 2010); cited from earlier work
# [4] = test system: LSL-K-ras^G12D lung tumors; assay: LSL-K-ras G12D x Z/EG mouse NSCLC model, FACS of GFP-positive tumor cells; assay type: in vivo; settings: one week after final dose of cisplatin, vs vehicle controls
# Method: In addition, the LSL-K-ras^G12D genetically engineered mouse model of NSCLC (Jackson et al., 2001) was crossed to the Z/EG Cre-reporter strain (Novak et al., 2000) and used in this study. Cisplatin (7 mg/kg i.p. every 7 days for 3 doses) was started 12 weeks after AdenoCre infection of the lungs (ie. tumor initiation). Lungs were collected 1 week after the last dose of chemotherapy and tumor cells were isolated by FACS after enzymatic digestion and dissociation. […] FIG. 2D (data presented as the average number of GFP positive cells per lung±SEM, n=6/group).
# HER3 = HER3 knockdown in Calu3-shHER3 cells, qPCR and Western blot; assay type: cell-based, human
# [5] = test system: Calu3-shHER3 xenograft tumors; assay: Calu3-shHER3 xenograft tumor growth; assay type: in vivo, mice; settings: dox treatment; vs sucrose TDT=11 days
# H441 cells = assay: Exogenous NRG1 stimulation of serum starved H441 cells, Western blotting; assay type: cell-based, human; settings: 1 uM NRG1, ten minutes
# HER4 = HER4 knockdown in Calu3-shHER4 cells, qPCR; assay type: cell-based, human; settings: dox 2 ug/ml
# [6] = test system: Calu3-shHer4 xenograft tumors; assay: Calu3-shHER4 xenograft tumor growth; assay type: in vivo, mice; settings: dox vs sucrose
# NRG1 mRNA = NRG1 mRNA levels in H1299 subline expressing shNRG1.2; assay type: cell-based, human; settings: compared with shNRG1
# H1299-shNRG1.2 = H1299-shNRG1.2 in vivo study; settings: magnitude of growth inhibition smaller than with shNRG1
molecule,measurement,setting,value
HER4-ECD: fusion of the human HER4 extracellular domain to murine IgG2A Fc; ligand trap to sequester NRG1,tumor growth (average tumor burden and tumor growth rate),[1]; cisplatin+HER4-ECD combination,significant inhibition of tumor growth
same,p-HER3 levels,NRG1/HER3 signaling,diminished
same,effect on tumor growth,[2]; HER4-ECD treatment alone,no effect
same,tumor burden by micro-CT,"[2]; day 28, cisplatin+HER4-ECD vs cisplatin+vehicle and all other groups",significant reduction in tumor burden
CC(=O)O[C@H]1C(=O)[C@@]2(C)[C@H]([C@H](OC(=O)c3ccccc3)[C@]3(O)C[C@H](OC(=O)[C@H](O)[C@@H](NC(=O)c4ccccc4)c4ccccc4)C(C)=C1C3(C)C)[C@]1(OC(C)=O)CO[C@@H]1C[C@@H]2O [Paclitaxel],tumor size vs vehicle-treated mice,KPL4,significantly smaller
N.N.[Cl][Pt][Cl] [cisplatin],survival,[3],does not result in prolonged survival
same,number of GFP-positive tumor cells per lung,[4],significant decrease in tumor cell number
same,average tumor burden at conclusion of study and overall tumor growth rate vs vehicle,[1]; cisplatin+control IgG2A,not significantly different
shHER3: dox-inducible shRNA to HER3 (SEQ ID NO: 7 and 8) (nucleic acid) chain 1: GATCCCCAAGAGGATGTCAACGGTTATTCAAGAGATAACCGTTGACATCCTCTTTTTTTTGGAAA chain 2: AGCTTTTCCAAAAAAAAGAGGATGTCAACGGTTATCTCTTGAATAACCGTTGACATCCTCTTGGG,HER3 transcript levels,"HER3; dox 2 ug/ml, qPCR",decreased
same,extent of p-AKT down-regulation,"HER3; in the presence of dox, compared with Calu3-shHER4",much greater
same,time to doubling (TDT),[5],19 days
"NRG1: recombinant human NRG1 beta-1 extracellular domain (R&D systems), exogenous ligand (protein, UniProt Q02297 20-242, looked up, extracellular domain, recombinant human NRG1 beta-1 extracellular domain (R&D systems), exogenous ligand) extracellular domain: SGKKPESAAGSQSPALPPRLKEMKSQESAAGSKLVLRCETSSEYSSLRFKWFKNGNELNRKNKPQNIKIQKKPGKSELRINKASLADSGEYMCKVISKLGNDSASANITIVESNEIITGMPASTEGAYVSSESPIRISVSTEGANTSSSTSTSTTGTSHLVKCAEKEKTFCVNGGECFMVKDLSNPSRYLCKCQPGFTGARCTENVPMKVQNQEKAEELYQKR",levels of p-Stat3 or p-Mek1/2,H441 cells,no detectable changes
same,p-HER3 and p-AKT,H441 cells,increase
shHER4: dox-inducible shRNA to HER4 (SEQ ID NO: 5 and 6) (nucleic acid) chain 1: GATCCCCGATCACAACTGCTGCTTAATTCAAGAGATTAAGCAGCAGTTGTGATCTTTTTTGGAAA chain 2: AGCTTTTCCAAAAAAGATCACAACTGCTGCTTAATCTCTTGAATTAAGCAGCAGTTGTGATCGGG,HER4 transcript levels,HER4,decreased
same,inhibition of tumor growth,[6],not a notable inhibition of tumor growth
shNRG1.2: a different doxycycline-inducible shRNA to NRG1 (SEQ ID NO: 3 and 4) (nucleic acid) chain 1: GATCCCCGAGTATATGTGCAAAGTGATTCAAGAGATCACTTTGCACATATACTCTTTTTTGGAAA chain 2: AGCTTTTCCAAAAAAGAGTATATGTGCAAAGTGATCTCTTGAATCACTTTGCACATATACTCGGG,reduction in NRG1 mRNA levels,NRG1 mRNA,more modest reduction
same,response to chemotherapy upon NRG1 knockdown,H1299-shNRG1.2,enhanced response to chemotherapy
